Like-named read-outs stand apart in the source and are kept apart here.
Key:
[1] = target: T1, human CTLA-4 expressed on cells (293T cells stably transfected with human CTLA-4); in vitro-activated human … (human, UniProt P16410 36-223); assay: FACS
[2] = target: T1, human CTLA-4 expressed on cells (293T …); assay: FACS; remark: listed apart in the source

EC50 [1] | EC50 [2] | Binder
130 pM | – | 4-E03 (antibody, V domains shown) VH: EVQLLESGGGLVQPGGSLRLSCAASGFTFSDYYMSWVRQAPGKGLEWVSGISWSSRDKGYADSVKGRFTISRDNSKNTLYLQMNSLRAEDTAVYYCTTDLARYWGQGTLVTVSS VL: QSVLTQPPSASGTPGQRVTISCTGSSSNIGAGYDVHWYQQLPGTAPKLLIYGNDNRPSGVPDRFSGSKSGTSASLAISGLRSEDEADYYCAVWDDSLNGVVFGGGTKLTVLG
100 pM | – | 2-C06 (antibody, V domains shown) VH: EVQLLESGGGLVQPGGSLRLSCAASGFTFSSYAMSWVRQAPGKGLEWVSGISGSGGYIHYADSVKGRFTISRDNSKNTLYLQMNSLRAEDTAVYYCATYSSGLHDAFDIWGQGTLVTVSS VL: QSVLTQPPSASGTPGQRVTISCTGSSSNIGAGYDVHWYQQLPGTAPKLLIYDNNKRPSGVPDRFSGSKSGTSASLAISGLRSEDEADYYCAAWDDSLNGWVFGGGTKLTVLG
– | 190 pM | 2-F09 (antibody, V domains shown) VH: EVQLLESGGGLVQPGGSLRLSCAASGFTFKAYSMSWIRQAPGKGLEWVSGISNTGGSTDFADSVKGRFTISRDNSKNTLYLQMNSLRAEDTAMYYCARLGYSGYDDRGMDVWGQGTLVTVSS VL: QSVLTQPPSASGTPGQRVTISCSGSSSNIGSNYVYWYQQLPGTAPKLLIYGNSNRPSGVPDRFSGSKSGTSASLAISGLRSEDEADYYCQSYDSSLSGPVVFGGGTKLTVLG
150 pM | – | 5-B07 (antibody, V domains shown) VH: EVQLLESGGGLVQPGGSLRLSCAASGFTFSSYSMNWVRQAPGKGLEWVSAISGSGGSTYYADSVKGRFTISRDNSKNTLYLQMNSLRAEDTAVYYCARDRVEMNQWLADWGQGTLVTVSS VL: not shown
